# Experiments:
# [1] = biological target: T1, ICOS (human, UniProt Q9Y6W8 21-140, limits assumed); assay: ELISA, coated protein, antibody concentration not given
# T1 sequence (looked up): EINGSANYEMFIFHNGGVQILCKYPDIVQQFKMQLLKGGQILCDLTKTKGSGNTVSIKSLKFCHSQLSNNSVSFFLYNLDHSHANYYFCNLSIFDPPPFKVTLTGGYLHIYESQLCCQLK
# [2] = biological target: CD28 (human, UniProt P10747 19-152); assay: as above
# Target sequence in this assay (P10747 19-152 limits assumed): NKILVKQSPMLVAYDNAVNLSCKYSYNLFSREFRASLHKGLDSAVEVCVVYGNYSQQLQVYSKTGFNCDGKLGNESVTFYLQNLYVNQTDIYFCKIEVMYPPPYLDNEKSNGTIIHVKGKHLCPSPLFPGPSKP
# [3] = biological target: T2, CTLA4 (human, UniProt P16410 37-162, limits assumed); assay: as above
# T2 sequence (looked up): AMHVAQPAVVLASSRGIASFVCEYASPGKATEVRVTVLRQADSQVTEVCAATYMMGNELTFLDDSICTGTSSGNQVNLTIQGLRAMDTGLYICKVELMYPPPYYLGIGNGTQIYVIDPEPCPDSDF
# [4] = biological target: T3, B7.1 (human, UniProt P33681 35-242); assay: as above
# T3 sequence (looked up): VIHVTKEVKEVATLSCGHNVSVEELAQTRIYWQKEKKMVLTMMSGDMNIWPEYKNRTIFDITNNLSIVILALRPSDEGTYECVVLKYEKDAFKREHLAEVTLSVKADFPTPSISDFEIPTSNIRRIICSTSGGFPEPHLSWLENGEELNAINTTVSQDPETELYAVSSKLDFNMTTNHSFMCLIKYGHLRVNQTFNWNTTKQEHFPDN
# [5] = biological target: T4, cyno monkey PD-1^ECD-hFc protein (cyno monkey, UniProt B0LAJ3 25-167); assay: ELISA, coated cyno PD-1ECD-hFc
# T4 construct: also called cyno PD-1^ECD-hFc; not shown: human IgG Fc fragment (hFc) and its junction to the ECD
# T4 sequence (B0LAJ3 entry or part of it limits assumed): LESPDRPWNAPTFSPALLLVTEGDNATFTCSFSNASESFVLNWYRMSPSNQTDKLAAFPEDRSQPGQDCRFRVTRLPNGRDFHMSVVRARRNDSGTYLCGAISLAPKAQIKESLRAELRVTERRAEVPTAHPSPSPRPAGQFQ
# [6] = biological target: T5, B7-1 (human, UniProt P33681 35-242); assay: ELISA on coated protein (Table 22)
# T5 sequence (looked up): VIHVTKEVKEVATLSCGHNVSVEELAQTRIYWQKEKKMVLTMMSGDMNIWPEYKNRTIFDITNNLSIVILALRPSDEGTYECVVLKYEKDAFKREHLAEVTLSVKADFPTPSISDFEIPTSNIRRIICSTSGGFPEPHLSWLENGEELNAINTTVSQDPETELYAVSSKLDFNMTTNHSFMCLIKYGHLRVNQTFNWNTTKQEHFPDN
# [7] = biological target: CD28 (human, UniProt P10747 19-152); assay: ELISA on coated protein (Table 22)
# Target sequence in this assay (P10747 19-152 limits assumed): as the sequence (P10747 19-152 limits assumed) above
# [8] = biological target: T6, ICOS (human, UniProt Q9Y6W8 21-140, limits assumed); assay: ELISA on coated protein (Table 22)
# T6 sequence (looked up): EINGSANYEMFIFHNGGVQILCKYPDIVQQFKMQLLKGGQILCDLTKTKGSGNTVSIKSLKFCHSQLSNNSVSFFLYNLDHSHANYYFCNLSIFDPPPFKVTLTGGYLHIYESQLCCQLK
# [9] = biological target: T7, CTLA4 (human, UniProt P16410 37-162, limits assumed); assay: ELISA on coated protein (Table 22)
# T7 sequence (looked up): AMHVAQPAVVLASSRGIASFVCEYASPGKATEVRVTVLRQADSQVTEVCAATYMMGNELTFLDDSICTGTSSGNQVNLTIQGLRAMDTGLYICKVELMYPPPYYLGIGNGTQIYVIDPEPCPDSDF
# [10] = biological target: T8, human PD-1^ECD-hFc protein (Immunogen A) (human, UniProt Q15116 25-167); assay: ELISA, coated human PD-1ECD-hFc
# T8 construct: also called PD-1-hFc; hPD-1^ECD-hFc; not shown: human IgG Fc fragment (hFc)
# T8 sequence (Q15116 25-167): as the sequence (B0LAJ3 entry or part of it limits assumed) above, with E2D, A10P, L19V, A35T, R75Q counted along it
# [11] = biological target: T8, human PD-1^ECD-hFc protein (Immunogen A); assay: ELISA, coated protein, antibody concentration not given
# [12] = biological target: T9, NC-Fc; assay: as above
# T9 construct: seemingly a negative control Fc protein
# [13] = biological target: T10, human PD-1, full length, on cells (human, UniProt Q15116 25-288); assay: flow cytometry on CHO-K1-hPD-1 cells
# T10 construct: whole, on cells; in the lymphocyte assays the natural PD-1 of human T cells/PBMCs; also called hPD-1; CHO-K1-hPD-1
# T10 sequence (Q15116 25-288): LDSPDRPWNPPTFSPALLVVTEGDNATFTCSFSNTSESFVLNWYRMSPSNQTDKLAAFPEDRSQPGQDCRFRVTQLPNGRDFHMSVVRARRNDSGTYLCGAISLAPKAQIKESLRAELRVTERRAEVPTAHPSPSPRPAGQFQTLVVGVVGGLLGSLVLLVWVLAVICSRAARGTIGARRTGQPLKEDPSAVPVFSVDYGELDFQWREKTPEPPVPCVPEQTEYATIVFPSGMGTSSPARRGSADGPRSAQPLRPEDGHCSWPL
# [14] = biological target: T11, His-tagged human PD-1 ECD protein (human, UniProt Q15116 25-167); assay: SPR Biacore T200, antibody captured by anti-human Fc, His-tagged hPD-1 ECD as analyte
# T11 construct: also called His-tagged hPD-1 ECD; His-tagged PD-1^ECD; not shown: His tag
# T11 sequence (Q15116 25-167): as the sequence (B0LAJ3 entry or part of it limits assumed) above, with E2D, A10P, L19V, A35T, R75Q counted along it
# Procedure: Anti-human Fc IgG was immobilized on flow cells 1 and 2: HBS-EP+(10 mM HEPES, 150 mM NaCl, 3 mM EDTA, 0.05% P20, pH 7.4) was used as running buffer, and the immobilization of anti-human Fc IgG was carried out using the immobilization wizard template. Flow cells 1 and 2 of a Series S CM5 sensor chip were activated with freshly-mixed 50 mmol/L NHS and 200 mmol/L EDC. 20 ug/mL of anti-human Fc IgG diluted in 10 mM NaAC (pH 4.5) was injected into the activated flow cells 1 and 2. The remaining active coupling sites were blocked with 1M ethanolamine.
# Recombinant His-tagged hPD-1 ECD protein was diluted to 50 nM, followed by four 2-fold serial dilutions with HBS-EP+ buffer. […] KD measurements were carried out with HBS-EP+ as the running buffer. Each antibody was injected over the CM5 sensor flow cell 2 with a flow rate of 10 uL/min to reach response 230 RU. Prepared His-tagged hPD-1 ECD protein was then injected over flow cells 1 and 2, at a flow rate of 30 uL/min for 180 sec. Buffer flow was maintained for 400 seconds for dissociation measurements (30 uL/min). To remove the tested antibody from the surface, 10 mM glycine-HCl pH 1.5 was injected for 20 seconds (30 uL/min). Flow cell 1 was used as reference flow cell. The above steps were repeated for each concentration of serially-diluted His-tagged PD-1^ECD protein. The KD value for each antibody was evaluated using Biacore T200 evaluation software 1.0, and the data was fit with a 1:1 binding model.
# [15] = biological target: T10, human PD-1, full length, on cells; assay: flow cytometry on activated human PBMCs (MFI)
Binder,OD450 nm [1] [OD450],OD450 nm [2] [OD450],OD450 nm [3] [OD450],OD450 nm [4] [OD450],OD450 nm at 0 nM [5] [OD450],OD450 nm at 0.001 nM [5] [OD450],OD450 nm at 0.01 nM [5] [OD450],OD450 nm at 0.1 nM [5] [OD450],OD450 nm at 1 nM [5] [OD450],OD450 nm at 100 nM [5] [OD450],OD450 nm at 0 nM [10] [OD450],OD450 nm at 0.0001 nM [10] [OD450],OD450 nm at 0.001 nM [10] [OD450],OD450 nm at 0.01 nM [10] [OD450],OD450 nm at 0.1 nM [10] [OD450],OD450 nm at 1 nM [10] [OD450],OD450 nm at 10 nM [10] [OD450],OD450 nm at 100 nM [10] [OD450],OD450 nm [11] [OD450],OD450 nm [12] [OD450],further results
"fully human anti-PD-1 antibody 223G6B5 (antibody, human IgG4, V domains shown) VH: QVQLQESGPGLVKPSETLSLTCAVSGHSIRGSYFWGWIRQPPGRGLEWIGSIYHSGSTYTNPSLKSRATISVDTSKNQFSLKLNSVTAADTAVYYCARDLDIATTRDYWGQGTLVTVSS VL: DIQLTQSPSFLSASVGDRVTIICRASQGINNYLAWYQQKPGKAPKLLIYAASTLQSGVPSRFSGSGSGTEFTLTISSLQPEDFATYYCQQLDSYPRTFGQGTKVEIKR",0.12,0.05,0.13,0.25,0.31,0.33,0.83,2.5,2.88,2.85,,,,,,,,,,,
"fully human anti-PD-1 antibody 223G6B5 (antibody, human IgG4, V domains shown, also called 223G6B5 (fully human, IgG4 S228P / kappa)) VH: QVQLQESGPGLVKPSETLSLTCAVSGHSIRGSYFWGWIRQPPGRGLEWIGSIYHSGSTYTNPSLKSRATISVDTSKNQFSLKLNSVTAADTAVYYCARDLDIATTRDYWGQGTLVTVSS VL: DIQLTQSPSFLSASVGDRVTIICRASQGINNYLAWYQQKPGKAPKLLIYAASTLQSGVPSRFSGSGSGTEFTLTISSLQPEDFATYYCQQLDSYPRTFGQGTKVEIKR",,,,,,,,,,,,,,,,,,,,,binding result [6]: no binding; binding result [7]: no binding; binding result [8]: no binding; binding result [9]: no binding
"fully human anti-PD-1 antibody 21G8F11 (antibody, human IgG4 S228P, kappa, V domains shown) VH: EVQLLESGGGLAQPGGSLRLSCAASGFSFNTYLMHWVRQAPGKGLEWVSAISGGGGNTYYADSVKGRFTISRDNSKNTLYLQMNSLRAEDTAVYYCAKENRIPVAPFDYWGQGTLVTVSS VL: DIQMTQSPSTLSASVGDRVTITCRASQSISTWLAWYQQKPGKAPKLLIYKASSLESGVPSRFSGSGSGTEFTLTISSLQPDDLATYYCQQYNSFSWTFGQGTKVEIKR",0.16,0.27,0.09,0.25,0.19,0.22,0.51,2.39,2.99,3,0.18,0.16,0.26,0.58,2.62,3.03,3.02,3.03,2.7,0.21,MFI at 0 nM [13]: 48.8 MFI; MFI at 0.01 nM [13]: 1020 MFI; OD450 nm at 0.0001 nM [5]: 0.15 OD450; OD450 nm at 10 nM [5]: 3.02 OD450
"fully human anti-PD-1 antibody 76G5B3 (antibody, human IgG4 S228P, kappa, V domains shown) VH: QVQLVESGGGVVQPGRSLRLSCAASGFTFSDYGFHWVRQAPGKGLEWVAVIWYDGSNEYYTDSVKGRFTISRDNSKNTLYLQMNSLRAEDTAMYFCVVNPFDYWGQGTLVTVSS VL: DIQMTQSPSSLSAFVGDRVTITCRASQGINHYLAWYQQKPGKAPNLLILAASTLLSGVPSRFGGRGSGTDFTLIISSLQPEDVATYYCQKYDSAPYTFGQGTKLEIKR",0.38,0.1,0.32,0.37,0.06,0.08,0.2,1.06,2.32,2.45,0.09,0.1,0.12,0.28,1.34,2.47,2.44,2.58,3.01,0.41,Kd [14]: 0.936 nM; koff [14]: 9.35e-05 s⁻¹; kon [14]: 100000 M⁻¹ s⁻¹; EC50 (read off the curve) [15]: ~0.2 nM; MFI at 0 nM [13]: 4.1 MFI; MFI at 0.01 nM [13]: 22.9 MFI; OD450 nm at 0.0001 nM [5]: 0.06 OD450; OD450 nm at 10 nM [5]: 2.41 OD450

# Source: US20180214548A1 (SHANGHAI YUNYI HEALTHCARE AND TECHNOLOGY, published 2018)
